Experimental data from patent US20100278838A1, “EPHA2 MONOCLONAL ANTIBODIES AND METHODS OF USE THEREOF” (MEDIMMUNE, LLC, priority 2002, published 2010).
Values belong to the molecule of their own block, whether it stands above or below them.

Tests used:
[1] = target: T1, EphA2-Ephrin A1-Fc complex (Homo sapiens, UniProt P29317); assay: Binding of biotinylated protein to EphA2-Ephrin A1-Fc complex on microtiter plate; details: FIG. 18A
T1 construct: consisting of the extracellular domain of EphA2 linked to human IgG1 constant region
T1 sequence (P29317 24-537 limits assumed): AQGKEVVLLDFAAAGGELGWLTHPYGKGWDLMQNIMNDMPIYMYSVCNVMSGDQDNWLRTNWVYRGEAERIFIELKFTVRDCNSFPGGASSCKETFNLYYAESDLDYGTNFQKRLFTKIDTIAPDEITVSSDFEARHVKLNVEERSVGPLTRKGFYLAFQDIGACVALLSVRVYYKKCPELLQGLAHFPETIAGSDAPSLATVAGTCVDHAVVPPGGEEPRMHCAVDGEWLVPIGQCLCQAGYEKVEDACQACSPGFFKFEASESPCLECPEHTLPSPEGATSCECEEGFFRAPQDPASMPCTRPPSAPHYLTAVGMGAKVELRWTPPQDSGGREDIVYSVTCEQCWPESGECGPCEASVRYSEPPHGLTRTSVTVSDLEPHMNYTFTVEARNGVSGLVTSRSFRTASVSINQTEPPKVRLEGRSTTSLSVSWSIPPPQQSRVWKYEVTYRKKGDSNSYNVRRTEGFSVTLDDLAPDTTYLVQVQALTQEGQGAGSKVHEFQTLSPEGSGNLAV
T1 sequence (P20827 19-182 partner limits assumed): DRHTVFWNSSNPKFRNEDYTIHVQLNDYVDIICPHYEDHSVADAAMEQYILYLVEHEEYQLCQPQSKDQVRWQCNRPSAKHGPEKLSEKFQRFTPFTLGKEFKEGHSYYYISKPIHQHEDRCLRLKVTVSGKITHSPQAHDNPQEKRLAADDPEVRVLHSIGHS
Experimental: FIGS. 18A-18B: EphA2 EA2 epitope is distinct from Eph099B-233.152 epitope and ligand binding site. (A) EphA2-Fc was incubated with and bound to immobilized Ephrin A1-Fc. Labeled Ephrin A1-Fc (black), EA2 (white) or Eph099B-233.152 (grey) was incubated with the EphA2-Ephrin A1-Fc complex and amount of binding was measured. (B) EphA2-Fc was incubated with and bound to immobilized Ephrin A1-Fc. Labeled EA2 was then incubated with the EphA2-Ephrin A1 complex. Unlabeled competitor was incubated with EphA2-Ephrin A1-EA2 complex in the indicated amount. Competitors were Ephrin A1-Fc (black), EA2 (white) or Eph099B-233.152 (grey).
A microtiter plate was coated with […] Ephrin A1-Fc overnight at 4° C. A fusion protein consisting of the extracellular domain of EphA2 linked to human IgG1 constant region (EphA2-Fc) was incubated with and bound to the immobilized Ephrin A1-Fc. Biotinylated Ephrin A1-Fc, EA2, or Eph099B-233.152 was incubated with the EphA2-Ephrin A1-Fc complex and amount of binding was measured.

[2] = tested on: malignant MDA-MB-231 tumor cells; assay: Inhibition of colony formation in soft agar; type: cell-based; details: MDA-MB-231, single dose 5 μg/ml, 37° C.
Experimental: FIG. 5: EphA2 antibodies inhibit malignant tumor cell growth in soft agar. A single dose of 5 μg/ml of Eph099B-208.261 (black bar), EA2 (white bar) purified EphA2 antibodies or a negative control antibody, 1A7 (gray bar) were incubated with malignant MDA-MB-231 tumor cells for the indicated time at 37° C. in soft agar. Results are reported as colonies per high-powered field (HPF).
The ability of the antibodies of the invention to inhibit cancer cell formation in soft agar was assayed as described in Zelinski et al. (2001, Cancer Res. 61:2301-6). Briefly, cells were suspended in soft agar for 7 days at 37° C. in the presence of purified antibody or control solution (PBS). Antibodies were administered at the time of suspension in both bottom and top agar solutions. Colony formation was scored microscopically using an Olympus CK-3 inverted phase-contrast microscope outfitted with a 40× objective. Clusters containing at least three cells were scored as a positive.

[3] = tested on: A549 lung cancer cells implanted subcutaneously; assay: Tumor growth in vivo, A549 implanted subcutaneously; set-up: species or system athymic mice; details: 6mg/kg intraperitoneally twice a week for 3 weeks; versus PBS or 1A7
Experimental: FIGS. 7A-7D: The EphA2 antibodies, EA2, Eph099B-208.261, and Eph099B-233.152, inhibit tumor cell growth in vivo. MDA-MB-231 breast cancer cells were implanted (A) orthotopically or (B) subcutaneously into athymic mice. (C) A549 lung cancer cells were implanted subcutaneously into athymic mice. After the tumors had grown to an average volume of 100 mm^3, mice were administered 6 mg/kg of the indicated antibody or negative control (PBS or 1A7 antibody) intraperitoneally twice a week for 3 weeks. Tumor growth was assessed and expressed as a ratio of the tumor volume divided by initial tumor volume (100 mm^3). (D) MDA-MB-231 breast cancer cells were implanted subcutaneously into athymic mice. After the tumors had grown to an average volume of 100 mm^3, mice were administered 6 mg/kg of the indicated antibody or negative control intraperitoneally twice a week for 3 weeks. Total tumor volume was determined after sacrifice. Negative control is black, EA2 is white, Eph099B-208.261 is dark grey, and Eph099B-233.152 is light grey.
5×10^6MDA-MB-231 breast cancer cells were implanted orthotopically or subcutaneously and 5×10^6 A549 lung cancer cells were implanted subcutaneously into athymic mice. […] Tumor growth was assessed and expressed either as a ratio of the tumor volume divided by initial tumor volume (100 mm^3) or as total tumor volume. […]

immobilized EphA2-Fc = target: T2, immobilized EphA2-Fc (Homo sapiens, UniProt P29317); assay: BIACORE surface plasmon resonance kinetic analysis (Koff); type: binding; details: FIG. 15
T2 construct: consisted of the extracellular domain of human EphA2 linked to human immunoglobulin
T2 sequence (P29317 24-537 limits assumed): as the sequence (P29317 24-537 limits assumed) above
Excerpt: FIG. 15: Kinetic analysis of EphA2 monoclonal antibodies. BIACORE™ (surface plasmon resonance-based) assays were used to assay the kinetics of EphA2 monoclonal antibody binding to immobilized EphA2-Fc. Eph099B-208.261 is indicated by a solid line, Eph099B-233.152 is indicated by a dotted line, EA2 is indicated by a dashed line, and the negative control is indicated by squares.
The surface plasmon resonance-based BIACORE™ assay was used to measure the Koff rates of the monoclonal antibodies of the invention. IgG present in the hybridoma supernatant was used for measurement.
EphA2-Fc was immobilize to a surface on a CM5 sensorchip using a standard amine (70 μl of a 1:1 mix of NHS/EDC) coupling chemistry. Briefly, a 400 nM solution of EphA2-Fc in 10 mM NaOAc, pH4, was then injected over the activated surface to a density of 1000-1100 RU's. Unused reactive esters were subsequently “capped” with a 70 μl injection of 1M Et-NH2. Similarly, an activated and “capped” control surface was prepared on the same sensor chip without protein to serve as a reference surface.
A 250 μl injection of each of the EphA2 hybridoma supernatants was made over both the EphA2-Fc and control surfaces, and the binding responses were recorded. These supernatants were used undiluted. Following each injection, at least 10 min. of dissociation phase data was collected. […]

Amount of binding to EphA2-Ephrin A1-Fc complex [1]: considerable levels
B1: EA2: EphA2 agonistic monoclonal antibody; ATCC deposit no. PTA-4380; co-pending application Ser. No. 10/436,783; VL SEQ ID NO:33, VH SEQ ID NO:37 (antibody, listed as Homo Sapiens, V domains shown)
VH: DVKLVESGGGLVKPGGSLKLSCAASGFTFSSYTMSWVRQTPEKRLEWVATISSGGTYTYYPDSVKGRFTISRDNAKNTLYLQMSSLKSEDTAMYYCTREAIFTYWGQGTLVTVSA
VL: DIKMTQSPSSMYASLGERVTITCKASQDINNYLSWFQQKPGKSPKTLIYRANRLVDGVPSRFSGSGSGQDYSLTISSLEYEDMGIYYCLKYDEFPYTFGGGTKLEIK
Colony growth in soft agar [2]: inhibited colony growth in soft agar
Growth of A549 cells implanted subcutaneously [3]: inhibited

Koff rate compared with EA2 (immobilized EphA2-Fc): slower Koff rates than EA2
B2: Eph099B-208.261: EphA2 monoclonal antibody; hybridoma ATCC PTA-4573; VL SEQ ID NO:1, VH SEQ ID NO:5 (antibody, listed as Homo sapiens, V domains shown)
VH: QVQLQQPGAELVKPGASVKLSCKASGYTFTSYWMHWVKQRPGQGLEWIGMIHPNSGSTNYNEKFKSKATLTVDKSSSTAYMRLSSLTSEDSAVYYCARGGNMVGGGYWGQGTTLTVSS
VL: QIVLTQSPALMSASPGEKVTMTCSASSSVSYMYWYQQKPRSSPKPWIYLTTNLASGVPARFSGSGSGTSYSLTISSMEAEDAATYYCQQWSSNPFTFGSGTKLEIR
Colony growth in soft agar [2]: inhibited colony growth in soft agar
Growth of A549 cells implanted subcutaneously [3]: inhibited

B3: Eph099B-233.152: EphA2 monoclonal antibody; hybridoma ATCC PTA-5194; VL SEQ ID NO:17, VH SEQ ID NO:21 (antibody, listed as Homo sapiens, V domains shown)
VH: EVKLVESGGGLVQPGGSLSLSCAASGFTFTDYSMNWVRQPPGKALEWLGFIRNKANDYTTEYSASVKGRFTISRDNSQSILYLQMNALRAEDSATYYCVRYPRYHAMDSWGQGTSVTVSS
VL: DIVLTQSPATLSVTPGDSVNLSCRASQSISNNLHWYQQKSHESPRLLIKYVFQSISGIPSRFSGSGSGTDFTLSINSVETEDFGMYFCQQSNSWPLTFGAGTKLELK
Koff rate compared with EA2 (immobilized EphA2-Fc): slower Koff rates than EA2
Amount of binding to EphA2-Ephrin A1-Fc complex [1]: considerable levels
